Assay results as given in the nanobody polyreactivity screen of Harvey et al. (2022).

Assay: yeast display, Sf9 membrane polyspecificity reagent, FACS + sequencing; frameworks hold sequencing errors
Outline: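 Nanobodies came from a synthetic yeast display library in Saccharomyces cerevisiae BJ5465, induced with galactose for 36–48 hours and stained for 1 hour at 4 °C with 10% biotinylated, detergent-solubilized Sf9 membrane reagent. Cells were enriched on streptavidin microbeads and then FACS-sorted, with low and high (top ~1%) gates set on anti-HA fluorescence for expression and streptavidin fluorescence for reagent binding. Each polyreactivity label reflects the gate a clone came from. Genes were amplified by colony PCR, sequenced by MiSeq 2 × 250 and filtered by CDR length.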

| Sequence | polyreactivity (PSR sort gate) |
| --- | --- |
| QVQLVESGGGLVQAGGSLRLSCAASGRILDWYAMGWYRQAPGTERELVASIYSTGGSSYYADSVKGRFTISRDHAKNTVYLQMNRLKPDDTAVYYCAAVIRSQDGRGYDYWGHGTQVTVSS | high polyreactivity |
| QVQLVESGGGLVQAGGSLRLSCAASGRILGFYAMGWYRQAPGKERELVARINWSGTRTYYADSVKGRFTISRDNAKNTVYLQMNSLKPEDTAVYYCAARRYYPYDYWGQGTQVTVSS | high polyreactivity |
| QVQLVESGGGLVQAGGSLRLSCAASGRILGKYAMGWYRQAPGKERELVAAIRLRGGSPYYADSVKGRFTISRDNAKNTVYLQMNSLKPDDTAVYYCAARYWDRSQAYNYWGQGTQVTVSS | high polyreactivity |
| QVQLVESGGGLVQAGGSLRLSCAASGRILGRYAMGWYRQAPGKERELVATITSGDDTNYADSVKGRFTISRDNAKNTVYLQMNSLKPEDTAVGYWGQGTQVTVSS | low polyreactivity |
| QVQLVESGGGLVQAGGSLRLSCAASGRILGSYAMGWYRQAPGKERELVAAISRGGGRTYYADSVKGRFTISRDNAKNTVYLQMNSLNPEDTAVYYCNAPVTGSSSYFSQHFDYWGQGTQVTVSS | high polyreactivity |
| QVQLVESGGGLVQAGGSLRLSCAASGRILGWNAMGWYSPAPGKVRELVAGISSSGGSTYYADSVKGRFTISRHNAKNTVNIQMNSLKPEDTAVYYCAAVVWLSSANRRYYYWGQGTQVTVSS | high polyreactivity |
| QVQLVESGGGLVQAGGSLRLSCAASGRILHRYVMGWNRQAPGKERELVAAISSGGSTTYADSVKGRFTISRDNAKNTVYLQMNSLKPEATAVYYCAKYSFWRTSRMDFWGQGTQVTVSS | low polyreactivity |
| QVQLVESGGGLVQAGGSLRLSCAASGRILKRNAMGWYRQSPGKERELVAAISWSTGTTYYADSVKGRFTISRDNAKNTVYLQMNSLKPEDTAVYYCAKQIVSGRRVDRNDYWGQGTQVTVSS | low polyreactivity |
| QVQLVESGGGLVQAGGSLRLSCAASGRILLYNAMGWYRQAPGKERELVAAISRSGGSTYYADSVKGRFTISRDNAKNTVYLQMNSLKPEDTAVDYCAAQHGYTRYYYWGQGTQVTVSS | high polyreactivity |
| QVQLVESGGGLVQAGGSLRLSCAASGRILNINAMGWYRQAPGKERELVAAITWRGGRTFYADSVKGRFTISRDNAKNTVYLQMNSLKPEDTAVYYCAASSNTWYPTGYYWGQGTQVTVSS | high polyreactivity |
| QVQLVESGGGLVQAGGSLRLSCAASGRILPFNAMGWYRPAPGKERELVAAIRWRGSSTYYADSVKGRFTISRDNAKNTVYLQMNSLKPEDTAVYYCAAPSSVRGKVISADYGYWGQGTQVTVSS | high polyreactivity |
| QVQLVESGGGLVQAGGSLRLSCAASGRILPGYAMGWYRQAPGKERELVAAIRGNGDSTYYADSVKGRFTISRDNAKNTVYLQMNSLKPEDTAVYYCAARRVSTIQRDSYRGRKYGYWGQGTQVTVSS | low polyreactivity |
| QVQLVESGGGLVQAGGSLRLSCAASGRILPLYAMGWYRQAPGKERELVARIDSGGSTNYADSVKGRFTISRDNAKNTVYLQMNSLKPEDTAVYYCAAVVTAQAFAYFTYGYDYWGQGTQVTVSS | low polyreactivity |
| QVQLVESGGGLVQAGGSLRLSCAASGRILPSNAMGWYRQAPGKERELVAAIRSGDRTYYADSVKGRFTISRDNAKNTVYLQMNSLKPEDTAVYYCAAFYHHYYRYDYWGQGTQVTVSS | low polyreactivity |
| QVQLVESGGGLVQAGGSLRLSCAASGRILPSNAMGWYRQAPGKERELVAGITSGGSTDYADSVKGRFTISRDNAKNTVYLQMNSLKPEDTAVYYCAAHPAYRDSWGEYDYWGQGTQVTVSS | low polyreactivity |
| QVQLVESGGGLVQAGGSLRLSCAASGRILPSNAMGWYRQATGNERELVATISSSGGDTYYADSVKGRFTNSRDNAKNTVYLQMNSLKPEDTAVYYCAADSTWEGGYKYEYWGQGTQVTVSS | low polyreactivity |
| QVQLVESGGGLVQAGGSLRLSCAASGRILPWYAMGWYRQAPGKERELAARIRSTDSTNYADSVKGRFTISRDNAKNTVYLQMNSLKPEDTAVYYCAKVQWGFPYAWLGSDYWGQGTQVTVSS | low polyreactivity |
| QVQLVESGGGLVQAGGSLRLSCAASGRILPWYAMGWYRQAPGKERELVAGISSNGGSTYYADSVKGRFTISRDNAKNTVYLQMNSLKPEDSAVYYCAALFWYWRHYPSDYWGQGTQVTVSS | high polyreactivity |
| QVQLVESGGGLVQAGGSLRLSCAASGRILPYYAMGWYRPAPGKERELVAALTGGGGSTYYADSVKGRFTISRDNAKNTVYLQMNSLKPEDTAVYYCAKPRGRASLALYRFSLYYYWGQGTQVTVSS | high polyreactivity |
| QVQLVESGGGLVQAGGSLRLSCAASGRILRQYAMGWYRQAPGKERELVAAITSSGGSTYYADSVKGRFTNSRDNAKNTVYLQMNSLKPEDTAVYYCAARYYPSGYRKKMYYWGQGTQVTVSS | high polyreactivity |
| QVQLVESGGGLVQAGGSLRLSCAASGRILRWNAMGWYRQAPGKEREMVAAIDWRGGSTYYADSVKGRFTISRDNAKNTVYLQMNSLKPEDTAVYYCAVDYYPYEVSYVRMDYWGQGTQVTVSS | low polyreactivity |
| QVQLVESGGGLVQAGGSLRLSCAASGRILSANAMGWYRQAPGKERELVAAITYSGDNTYYADSVKGRFTISRDNAKNTVYLQMNSLKPEDTAVYYCAREFQVDGGEEDYWGQGTQVTVSS | low polyreactivity |

| Sequence | polyreactivity (PSR sort gate) |
| --- | --- |
| QVQLVESGGGLVQAGGSLRLSCAASGRILSFYAMGWYRQAPGKEREFVATITWSGGSTYADSVKGRFTISRDNANNSVYLQMNSLKPEDTAVYYCNAELSNYKYDYWGQGTHVTVSS | low polyreactivity |
| QVQLVESGGGLVQAGGSLRLSCAASGRILSGTPMGLYRQAPRKERELVAAITNAGITKYADSVKGRFTISRDNAKNTVYLQMNSLKPEDTAVYYCATDRYAYKLYDYWGQGTKVTVSS | low polyreactivity |
| QVQLVESGGGLVQAGGSLRLSCAASGRILSHYAMGWYRQAPGKERELVASISGSDGSTYYADSVKGRFTISRDNAKNTVYLQMNSLKPEDTAVYYCAVDSYQTGVYFYYVYWDFDLGYWGQGTQVTVSS | low polyreactivity |
| QVQLVESGGGLVQAGGSLRLSCAASGRILSPYAMGWYRPAPGKERELVAAISRSGGSTYYADSVKGRFTISRDNAKNTVYLQMNSLKPEDTAVYYCNAVIAWYRSDEYDYWGQGTQVTVSS | high polyreactivity |
| QVQLVESGGGLVQAGGSLRLSCAASGRILSSYAMGWYRQAPGKERELVARISYSGGRTYYADSVKGRFTISRDNAKNTVYLQMNSLKPEDTAVYYCAAVSRVHFSYIYDYWGQGTQVTVSS | high polyreactivity |
| QVQLVESGGGLVQAGGSLRLSCAASGRILSVYVMGWYRQAPGKERELVAAISRNGGRTYYADSVKGRFTISRDNAKNTVYLQMNSLKPEDTAVYYCAKSQRGTVYSYYYWGQGTQVTVSS | high polyreactivity |
| QVQLVESGGGLVQAGGSLRLSCAASGRILSYNAMGCYRQAPGKERELVAGISWSGGSTYYADSVKGRFTISRDNAKNTVYLQMNSLKPEDTAVYYCNKLQGLTWYNSPYGYWGQGTQVTVSS | high polyreactivity |
| QVQLVESGGGLVQAGGSLRLSCAASGRILSYYAMGWYRQAPGKERELVAAISWGGGRTFYADSVKGRFTISRDNAKNTVYLQMNSLQPEDTAVYYCNADSYRWGAHDYWGQGTQVTVSS | high polyreactivity |
| QVQLVESGGGLVQAGGSLRLSCAASGRILTSNAMGWYRKAPGKERELVAAISWSGGSTYYADSVKGRFTISRENAKNSVYLHMNRLKPEDTAGYYCAAPFTTTFDYWGQGTQVTVSS | low polyreactivity |
| QVQLVESGGGLVQAGGSLRLSCAASGRILTSNAMGWYRQAPGKERELVAAISWSGGSTYYADSVKGRFTISRDNAKNTVYLQMNILKPEDTAVYYCAAPLYWVDDFESGWRYYYWGQGTQVTVSS | low polyreactivity |
| QVQLVESGGGLVQAGGSLRLSCAASGRILTYYAMGWYRQAPGKERELVAAISWRAGYTYYADSVKGRFTISRDNAKNTVYLQMNSLKPEDTAVYYCAAETSNRGRRYYYWGQGTQVTVSS | high polyreactivity |
| QVQLVESGGGLVQAGGSLRLSCAASGRILVLNAMGWYIQAPGKERELVADITSGGSTYYADSVKGRFTISRDNEKNTVYLQMISLKPEHTAVYYCAADWNTYPDYLQSYFVSYEYNYWGQGTLVTVSS | low polyreactivity |
| QVQLVESGGGLVQAGGSLRLSCAASGRILVRNAMGRYRQAPGKERELVAVIRWSGGRTSYADSVKGRFTISRDNAKNTVYLQMNSLKPEDTAVYYCNKGGSYPTSNYKSYWVGVDYWGQGTQVTVSS | low polyreactivity |
| QVQLVESGGGLVQAGGSLRLSCAASGRILVVNAMGWYRQAPGKERELVASISQSGGITYADSVKGRFTISRDNAKNTVYLQMNSLKTEDTAVYYCAAKSTWEYDYWGQGTQVTVSS | low polyreactivity |
| QVQLVESGGGLVQAGGSLRLSCAASGRILWGNTMGWYRQAPGKERELVAAISWNGGGTYYADSVKGRFTISRDNAKNTVYLQMNSLKPEDTAVYYCATRYTYSTDTGYDYWGQGTQVTVSS | low polyreactivity |
| QVQLVESGGGLVQAGGSLRLSCAASGRILWSYAMGWYRQAPGKEREFVAAISRGGGTTYYADSVKGRFTISRDNAKNTVYLQMNSLKPEDTAVYYCNAGDHIRKRYGISATWGYGYGYWGQGTQVTVSS | high polyreactivity |
| QVQLVESGGGLVQAGGSLRLSCAASGRILWYNAMGWYRQAPGKERELVAAINRGGSTNYADSVKGRFRISRDNAKNTVYLQMNSLKPEDTAVYYCAAVHYRWWYRSAYDYWGQGTQVTVSS | low polyreactivity |
| QVQLVESGGGLVQAGGSLRLSCAASGRILYFYIGWYRQAPGTEREFVADISSTTSTYYADSVKGRFTISRDNAKNTVYLQMKSLKPEDTAVYYCAAPGDGYAYPIVWYGYSGYYYWGQGTQVTVSS | low polyreactivity |
| QVQLVESGGGLVQAGGSLRLSCAASGRILYGYTMGWYRQAPGKEREFVARITRRGGRTNYADSVKGRFTISRDNAKNTVYLQMNSLKPEDTAVYYCAADPIRDSWWQYFQDGREYDYWGQGTQVTVSS | low polyreactivity |
| QVQLVESGGGLVQAGGSLRLSCAASGRILYKYAMGWYRQAPGKERELVAAISWRGTTTYYADSVKGRFTISRDNAKNTVYLQMNSLKPEDTAVYYCAKDRSYGYFSRPVSQYDYWGQGTQVTVSS | high polyreactivity |
| QVQLVESGGGLVQAGGSLRLSCAASGRILYLNAMGWYRQAPGKERELVAAITRRAGSTRYADSVKGRFTISRDKAKNTVYLQMNSLKPEDTAVYYCAVAYYRNRMDYWGQGTQVTVSS | high polyreactivity |
